Test results published in paper PMC11480083.
Where a chain is given by its changes, count along the chain named. In names and notes the source's numbering stands.

Assays:
[1] = test system: O=C(c1ccc(O)cc1O)c1ccc(O)cc1O; experiment: purified protein; conditions: 4 mM UDP-Glc, 100 mM Kpi pH 8.0, 30 °C
[2] = substrate: O=C(c1ccc(O)cc1O)c1ccc(O)cc1O; experiment: steady-state kinetics, HPLC; assay type: biochemical, Nelumbo nucifera; conditions: UDP-Glc donor
[3] = substrate: O=C(c1ccc(O)cc1O)c1ccc(O)cc1O; experiment: purified protein
[4] = substrate: O=C(c1ccc(O)cc1O)c1ccc(O)cc1O; experiment: steady-state kinetics, HPLC; assay type: biochemical, Citrus japonica; conditions: UDP-Glc donor
[5] = substrate: O=C(c1ccc(O)cc1O)c1ccc(O)cc1O; experiment: steady-state kinetics, HPLC; assay type: biochemical, Gardenia jasminoides; conditions: UDP-Glc donor

MiCGT (Mangifera indica)
Km [1]: 430 ± 155 µM
kcat [1]: 0.00848 ± 0.00147 s⁻¹

MiCGT (Mangifera indica; E152Q)
Km [1]: 176 ± 25 µM

MiCGT (Mangifera indica; E152Q/S122P/V190D)
Km [1]: 36 ± 3 µM
kcat [1]: 0.1579 ± 0.00172 s⁻¹

MiCGT (Mangifera indica; E152Q/V190D)
Km [1]: 189 ± 21 µM

MiCGT (Mangifera indica; M148A)
Km [1]: 269 ± 49 µM

MiCGT (Mangifera indica; M148A/S121D/V190T)
Km [1]: 249 ± 30 µM
kcat [1]: 0.51143 ± 0.0157 s⁻¹

MiCGT (Mangifera indica; M148A/V190T)
Km [1]: 317 ± 100 µM

B1: NnGT (Nelumbo nucifera; C156Q/L197D/S126P) (protein)
chain: MEMSSSSDLQILPPHVALLPSSGMGHLVPFVRLAAALARRNCLVTFITTHPTVSLSESRLVSRLLSAFPHVTPLEFHLLPLDHSTANSKDPFFLQFEAIRRSAHLLSPLLSSCSDPPLSALITDVPLASAFISITDELRLPNYILFTSSAWMLSLQLNFPTFVVNTSTNLSGGSATASDDIEIPGVPPVPKSWLPPDLLDLSNLFTTQFMANGQELIKSNGILINTFGNAEQATVAALNEGKVVNGLPPVTKIGPLAPCEFEKGSSVEWLDGQPAGSVLYVSFGSRTAMSREQIRELGDGLVRSGCRFLWVVKDKKVDREDEEELGGIVGQELMERMKDNGLVVKNWVDQGVVLAHPAVGGFLSHCGWNSVTEAAWNGVPVLAWPQHGDQSINAQVMEKSGIGMWVKSWGWGRTEVVKGEEIGQKIGEMMGNDRLKAQAANIREESRRAVEVGGGSYKELEGIIEKWKISRI
Km [2]: 319 ± 61 µM
kcat [2]: 0.00872 ± 0.000567 s⁻¹

B2: FcCGT (Citrus japonica; A189D/T149Q) (protein)
chain: MSDSGGFDSHPHVALIPSAGMGHLTPFLRLAASLVQHHCRVTLITTYPTVSLAETQHVSHFLSAYPQVTEKRFHLLPFDPNSANATDPFFLRWEAIRRSAHLLAPLLSPPLSALITDVTLISAVLPVTINLHLPNYVLFTASARMFSLQASFPAIVASKSTSSGSVEFDDDFIEIPGLPPIPLSSVPPDVMDSKSLFATSFLENGNSFVKSNGVLINSFDALEADTLVALNGRRVVAGLPPVYAVGPLLPCEFEKRDDPSTSLILKWLDDQPEGSVVYVSFGSRLALSMEQTKELGNGLLSSGCRFLWVVKGKTVDKEDEESLKNVLGHELMEKIKDQGLVVKNWVDQDKVLSHRAVGGFVSHGGWNSLVEAARHGVPVLVWPQFGDQKINAEAVESAGLGMWVRSWGWGTELRAKGDEIGLKIKDLMANDFLREQAKRIEEEARKAIGVGGSSERTFKELIDKWKCNNNTH
Km [3]: 375 ± 72 µM
kcat [3]: 0.04075 ± 0.0016 s⁻¹

B3: FcCGT (Citrus japonica; M145A/V118D) (protein)
chain: B2 chain with V118D, M145A, Q149T, D189A
Km [4]: 1064 ± 151 µM
kcat [4]: 0.05323 ± 0.00218 s⁻¹

B4: GjGTa (Gardenia jasminoides; A142M/F116S/F117P) (protein)
chain: MENTLVLYPAPGIGHMISMLELAKLILRHYSNKFSRIHILINTGFRDMKSTYLDHISSTNPSIVVHQFPFIQADLSSSLSPPAIGFKFIRKNAPNVHHALQEISKTSSIRALIIDSPCTSAMPYSNNLGIPVYYFFTSGAAMVALFLYFPTIHKQTSESFKDLVQTKFDVPGLPPIPATQMPEPVLDRDDPAYDDILYYSVHLPKSSGIIVNTFDELEPIALKAITDGLCVPDAPTPPLYNIGPLIADADSRPAIDGDKGIDLDQSDCFSWLDRQPDQCVVFLCFGSRGTFSVEQIKEIAKGLERSGKRFLWVVKKPLRNNKSKQVEGSGGFEIDSILPERFLEKTKGIGLVVKSWIPQLQVLRHPAVGGFVTHCGWNSTLEAVVAGVPLVAWPLHAEQHVNMAALVQDMKMAIPVEQGDDGIVRGEEVEKRVRELMDSERGRELRKLSQKTRDIAAESGVHLGSSSTALASLIHVVFGN
Km [5]: 12 ± 0.5 µM
kcat [5]: 0.00035 ± 1.2e-06 s⁻¹
